Experiments:
[1] = molecular target: ACTR variant SEQ ID NO: 9; test: cell-based or functional assay
[2] = molecular target: T1, ACTR variant SEQ ID NO: 9; test: apparent affinity; flow cytometry, rituximab titrated on ACTR-expressing T cells, anti-human Fc detection
T1 construct: also called ACTR T cells; ACTR-expressing T cells

[3] = molecular target: T1, ACTR variant SEQ ID NO: 9; test: flow cytometry titration of rituximab on T cells expressing ACTR variant SEQ ID NO: 9; bound rituximab detected with a fluorochrome-labeled anti-human Fc antibody

T1 sequence (chain, as listed by the source mutant limits assumed): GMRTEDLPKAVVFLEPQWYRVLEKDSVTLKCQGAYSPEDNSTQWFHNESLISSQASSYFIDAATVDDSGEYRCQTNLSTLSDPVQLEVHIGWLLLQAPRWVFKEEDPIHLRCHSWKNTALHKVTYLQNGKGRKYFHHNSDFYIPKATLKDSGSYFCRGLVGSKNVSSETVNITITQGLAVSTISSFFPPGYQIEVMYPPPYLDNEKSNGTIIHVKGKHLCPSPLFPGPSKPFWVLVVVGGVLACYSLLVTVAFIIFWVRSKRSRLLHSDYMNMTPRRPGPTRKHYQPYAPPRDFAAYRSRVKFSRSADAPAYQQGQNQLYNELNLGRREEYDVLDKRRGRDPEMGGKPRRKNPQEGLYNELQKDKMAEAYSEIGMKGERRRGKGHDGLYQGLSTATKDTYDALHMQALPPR

- Kd [2]: 689 nM
- EC50 (read off the curve) [3]: ~700 nM
B1: rituximab (antibody, V domains shown)
VH: QVQLQQPGAELVKPGASVKMSCKASGYTFTSYNMHWVKQTPGRGLEWIGAIYPGNGDTSYNQKFKGKATLTADKSSSTAYMQLSSLTSEDSAVYYCARSTYYGGDWYFNVWGAGTTVTVSA
VL: QIVLSQSPAILSASPGEKVTMTCRASSSVSYIHWFQQKPGSSPKPWIYATSNLASGVPVRFSGSGSGTSYSLTISRVEAEDAATYYCQQWTSNPPTFGGGTKLEIK
- EC50 (µg/mL) of cytotoxicity, Raji Target Cells + Rituximab [1]: 0.07 µg/mL
